Laboratory results from paper PMC10450677, “CD44 acts as a coreceptor for cell-specific enhancement of signaling and regulatory T cell induction by TGM1, a parasite TGF-β mimic” (Proceedings of the National Academy of Sciences of the …, 2023).

T1: TGM1 D4/5 (domains 4 and 5) (Heligmosomoides polygyrus, UniProt A0A2D1LW19 1-422, 125I (chloramine T) in the cross-linking assays; biotin (EZ-Link Sulfo-NHS-LC-Biotin) in the pull-downs; Alexa Fluor 488 in flow cytometry; no label named for ITC)
T1 construct: TGM1, Heligmosomoides polygyrus, GenBank MG099712, domains 4 and 5; D1/2/3 ends at aa 262 and the protein at aa 422; also called TGM1-D4/5-biotin; source: recombinant, purified
T1 sequence: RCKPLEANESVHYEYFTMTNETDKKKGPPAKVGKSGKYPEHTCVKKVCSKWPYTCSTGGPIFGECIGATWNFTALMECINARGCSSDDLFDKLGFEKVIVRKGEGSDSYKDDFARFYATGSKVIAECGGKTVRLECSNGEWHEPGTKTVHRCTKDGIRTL

T2: TGM1 full-length (D1/2/3/4/5), aa 19-422 (Heligmosomoides polygyrus, UniProt A0A2D1LW19 19-422, 125I (chloramine T) in the cross-linking assays; biotin (EZ-Link Sulfo-NHS-LC-Biotin) in the pull-downs; Alexa Fluor 488 in flow cytometry; no label named for ITC)
T2 construct: TGF-β mimic TGM1, Heligmosomoides polygyrus, GenBank MG099712 (422-aa protein), aa 19-422, omitting the parasite-encoded signal peptide; also called TGM1-FL; FL; source: HEK293 (pSecTag2A), purified (HiTrap nickel chelating, Superdex 75 as needed)
T2 sequence: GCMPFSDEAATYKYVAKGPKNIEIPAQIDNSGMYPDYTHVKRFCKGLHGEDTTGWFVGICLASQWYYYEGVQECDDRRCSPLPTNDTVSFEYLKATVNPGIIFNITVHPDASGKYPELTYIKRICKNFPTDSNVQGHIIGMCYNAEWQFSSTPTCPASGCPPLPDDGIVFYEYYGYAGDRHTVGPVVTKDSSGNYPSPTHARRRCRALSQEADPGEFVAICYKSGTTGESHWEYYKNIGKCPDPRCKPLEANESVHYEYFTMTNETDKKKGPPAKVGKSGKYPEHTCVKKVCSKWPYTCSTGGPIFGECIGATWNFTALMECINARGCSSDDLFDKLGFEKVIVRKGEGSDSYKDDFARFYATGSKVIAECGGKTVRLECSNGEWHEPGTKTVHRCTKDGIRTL


What was measured:
[1] = biological target: T1, TGM1 D4/5 (domains 4 and 5); experiment: ITC; CD44 in the syringe, TGM1 protein in the cell; 25 mM sodium phosphate, 50 mM NaCl, pH 6.0, 35 °C; 1:1 binding model, global fit of two replicates; conditions: both partners purified
[2] = biological target: T2, TGM1 full-length (D1/2/3/4/5), aa 19-422; experiment: as above; conditions: both partners purified

Binder	Kd [1]	dH [1]	stoichiometry N [1]	Kd [2]	dH [2]	stoichiometry N [2]
human CD44 hyaluronan binding domain, aa 21-169 (domain or fragment, UniProt P16070 21-169, looked up, also called hCD44; source: HEK293 (pcDNA3.1+), purified (HiTrap nickel chelating, Superdex 75 as needed)) QIDLNITCRFAGVFHVEKNGRYSISRTEAADLCKAFNSTLPTMAQMEKALSIGFETCRYGFIEGHVVIPRIHPNSICAANNTGVYILTSNTSQYDTYCFNASAPPEEDCTSVTDLPNAFDGPITITIVNRDGTRYVQKGEYRTNPEDIY	140 nM	-9.6 kcal/mol	1.2	92 nM	-10.3 kcal/mol	1.2
mouse CD44 hyaluronan binding domain, aa 23-174 (domain or fragment, UniProt P15379 23-174, looked up, also called mCD44; murine CD44; source: HEK293 (pcDNA3.1+), purified (HiTrap nickel chelating, Superdex 75 as needed)) QIDLNVTCRYAGVFHVEKNGRYSISRTEAADLCQAFNSTLPTMDQMKLALSKGFETCRYGFIEGNVVIPRIHPNAICAANHTGVYILVTSNTSHYDTYCFNASAPPEEDCTSVTDLPNSFDGPVTITIVNRDGTRYSKKGEYRTHQEDIDAS	62 nM	-19.4 kcal/mol	1.4	64 nM	-17.5 kcal/mol	0.8
